Measured values published in the supplement of paper PMC6757056.
± gives the standard deviation of the averaged measurements.

B1: library; a variant is named by its letters at N, in order (parent)
chain: GCUGUCACCGGUGCUUGGUACGUUAUAUUCAGCCGGUCUGAUGAGUCUNNNNNNAGACGAAACAGC

Key:
[1] = variants of: B1; experiment: normalized RNA/DNA level without ligand (relative to sTRSVctl = 100) (log10 (% of sTRSVctl)); HEK293T overexpressing SLC46A1; higher = less ribozyme self-cleavage, higher mRNA level; conditions: without (6R,S)-folinic acid; ligand present: no
How it was run: (§1)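 Total RNA, extracted with EDTA 72 h after HEK293T cells were transfected with 4 µg per 6-well well of reporter-linked ribozyme switch library plasmids, was reverse-transcribed, amplified, barcoded and sequenced. Ligand, if used, was added 1 h before transfection. RNA level was derived from RNA reads divided by DNA reads and normalized to a spiked-in non-cleaving sequence or to the top sequences. This was multiplied by 100 and log10-transformed, with the top set of 25 sequences and a ≥100 DNA read minimum.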

[2] = variants of: B1; experiment: normalized RNA/DNA level with ligand (relative to sTRSVctl = 100) (log10 (% of sTRSVctl)); HEK293T overexpressing SLC46A1; ligand concentration (+) RNA-Seq: 6 mM; higher = less ribozyme self-cleavage, higher mRNA level; conditions: with (6R,S)-folinic acid; ligand present: yes
How it was run: as §1

Row | Variant | normalized RNA/DNA level without ligand (log10) [1] | normalized RNA/DNA level with ligand (log10) [2]
1 | UGUGCC | 2.023 ± 0.019 | 2.06 ± 0.029
2 | UGUGCA | 1.9059 ± 0.0006 | 1.99 ± 0.04
3 | AGUGUC | 2.054 ± 0.0091 | 2 ± 0.046
4 | AGUGUA | 1.942 ± 0.007 | 2 ± 0.05
5 | AGUGUG | 1.78 ± 0.018 | 1.97 ± 0.01
6 | AGUGUU | 2.026 ± 0.011 | 2.04 ± 0.027
7 | AGUGGU | 1.95 ± 0.013 | 2.02 ± 0.049
8 | AGUGGG | 1.921 ± 0.019 | 2.04 ± 0.035
9 | AGUGGC | 2.042 ± 0.01 | 2.04 ± 0.06
10 | AGUUCG | 1.953 ± 0.015 | 2 ± 0.025
11 | AGUUCC | 2.06 ± 0.047 | 2.04 ± 0.059
12 | AGUUCU | 2.02 ± 0.025 | 2.014 ± 0.011
13 | AGUGCU | 2.01 ± 0.0069 | 2.03 ± 0.027
14 | AGUGCA | 1.97 ± 0.025 | 1.996 ± 0.016
15 | AGUGCG | 1.849 ± 0.017 | 2.01 ± 0.062
16 | AGUGCC | 2.072 ± 0.014 | 2.07 ± 0.035
17 | UGUUGC | 1.98 ± 0.024 | 2.059 ± 0.0084
18 | UGUUCG | 1.761 ± 0.017 | 1.96 ± 0.031
19 | UGUUCA | 1.991 ± 0.012 | 2.0188 ± 0.0011
20 | UGUUCU | 2.031 ± 0.0043 | 2.08 ± 0.035
21 | AGUCAU | 1.998 ± 0.0079 | 2.0062 ± 1.5e-05
22 | CGUUCC | 2.07 ± 0.026 | 2.028 ± 0.017
23 | CGUUCA | 2.024 ± 0.004 | 2.044 ± 0.017
24 | CGUUCG | 2.0527 ± 1.7e-05 | 2.04 ± 0.047

Row | Variant | normalized RNA/DNA level without ligand (log10) [1] | normalized RNA/DNA level with ligand (log10) [2]
25 | CGUUCU | 2.07 ± 0.034 | 2.03 ± 0.034
26 | UGUGUC | 2.041 ± 0.019 | 2.004 ± 0.012
27 | UGUGUU | 1.907 ± 0.019 | 1.966 ± 0.019
28 | CGUGCA | 2.01 ± 0.022 | 2.03 ± 0.021
29 | CGUGCU | 2.05 ± 0.012 | 2.05 ± 0.052
30 | CGUGCC | 2.068 ± 0.0025 | 2.01 ± 0.036
31 | CGUGCG | 1.974 ± 0.0043 | 1.99 ± 0.031
32 | GGUCUA | 2.01 ± 0.021 | 2.03 ± 0.029
33 | GGUCUG | 2.081 ± 0.0057 | 2.06 ± 0.061
34 | GGUCUU | 2.02 ± 0.027 | 2.01 ± 0.032
35 | GGUCUC | 2.0526 ± 0.0017 | 2.06 ± 0.026
36 | UGUCGC | 1.966 ± 0.0063 | 2.024 ± 0.0019
37 | UGUCGA | 1.904 ± 0.0056 | 1.994 ± 0.013
38 | CGUUGG | 1.931 ± 0.019 | 2.0206 ± 0.0013
39 | CGUUGA | 2.013 ± 0.013 | 2.016 ± 0.0024
40 | GGUUCU | 2.0626 ± 0.0019 | 2.05 ± 0.049
41 | GGUUCC | 2.028 ± 0.018 | 2.03 ± 0.037
42 | GGUUCA | 1.99 ± 0.02 | 2 ± 0.036
43 | GGUUCG | 2.0485 ± 5.4e-05 | 2.06 ± 0.048
44 | AGUCUU | 2.017 ± 0.0028 | 1.99 ± 0.028
45 | AGUCUG | 1.972 ± 0.0057 | 2.04 ± 0.048
46 | AGUCUA | 1.992 ± 0.0093 | 2.02 ± 0.05
47 | AGUCUC | 2.03 ± 0.016 | 2.02 ± 0.041
48 | GGUUGG | 2.042 ± 0.016 | 2.03 ± 0.031

Row | Variant | normalized RNA/DNA level without ligand (log10) [1] | normalized RNA/DNA level with ligand (log10) [2]
49 | UGUCCU | 2.03 ± 0.034 | 2.07 ± 0.026
50 | UGUCCC | 2.06 ± 0.024 | 2.033 ± 0.017
51 | UGUCCG | 1.86 ± 0.022 | 1.99 ± 0.033
52 | GGUUAA | 1.987 ± 0.0045 | 2.02 ± 0.031
53 | GGUUAC | 1.999 ± 0.0035 | 2 ± 0.038
54 | CGUGGC | 2.02 ± 0.027 | 2 ± 0.073
55 | CGUGGG | 1.8506 ± 0.0006 | 1.98 ± 0.036
56 | CGUGGU | 1.998 ± 0.0064 | 1.99 ± 0.029
57 | GGUGCC | 2.029 ± 0.0081 | 2.03 ± 0.039
58 | GGUGCG | 2.0178 ± 0.0012 | 2.05 ± 0.035
59 | UGUGGC | 1.97 ± 0.022 | 2.019 ± 0.0063
60 | CGUUAU | 1.977 ± 0.0039 | 2.005 ± 0.016
61 | CGUUAG | 2.009 ± 0.0098 | 2.031 ± 0.006
62 | CGUUAC | 2.037 ± 0.015 | 2.01 ± 0.037
63 | UGUUAU | 1.95 ± 0.028 | 1.975 ± 0.0073
64 | GGUGUA | 1.972 ± 0.01 | 2.01 ± 0.02
65 | GGUGUU | 2.029 ± 0.0064 | 2.02 ± 0.041
66 | GGUGUG | 1.98 ± 0.014 | 2.04 ± 0.034
67 | GGUGUC | 2.051 ± 0.019 | 2.01 ± 0.028
68 | GGUCAU | 2.01 ± 0.025 | 2.01 ± 0.044
69 | CGUGAG | 1.97 ± 0.029 | 1.99 ± 0.028
70 | CGUGAU | 1.96 ± 0.0081 | 1.993 ± 0.0086
71 | AGUCCC | 2.019 ± 0.0039 | 2.046 ± 0.0072
72 | AGUCCA | 2.022 ± 0.0089 | 2.0202 ± 0.002

Row | Variant | normalized RNA/DNA level without ligand (log10) [1] | normalized RNA/DNA level with ligand (log10) [2]
73 | AGUCCG | 1.988 ± 0.0076 | 2 ± 0.025
74 | AGUCCU | 2.048 ± 0.0074 | 2.05 ± 0.029
75 | GGUGGU | 2.053 ± 0.016 | 2.03 ± 0.031
76 | GGUGGG | 2.034 ± 0.014 | 2.059 ± 0.017
77 | GGUGGC | 1.98 ± 0.023 | 2.02 ± 0.037
78 | GGUGAA | 1.989 ± 0.0081 | 2.011 ± 0.02
79 | GGUGAG | 1.908 ± 0.012 | 1.99 ± 0.01
80 | CGUCGA | 2.012 ± 0.0023 | 2.019 ± 0.019
81 | CGUCGG | 2.01 ± 0.026 | 2.08 ± 0.049
82 | CGUCGU | 2.04 ± 0.032 | 2 ± 0.03
83 | CGUCGC | 2.06 ± 0.037 | 2 ± 0.092
84 | GGUCCC | 2.043 ± 0.016 | 2.01 ± 0.027
85 | GGUCCU | 2.09 ± 0.0075 | 2.09 ± 0.062
86 | GGUCCG | 2.04 ± 0.018 | 2.03 ± 0.03
87 | CGUCCU | 2.11 ± 0.011 | 2.06 ± 0.031
88 | CGUCCG | 2.04 ± 0.026 | 2.037 ± 0.015
89 | CGUCCA | 2.0366 ± 0.0014 | 2.02 ± 0.035
90 | CGUCCC | 2.003 ± 0.0083 | 1.95 ± 0.037
91 | CGUCUU | 2.021 ± 0.0084 | 2 ± 0.039
92 | CGUCUG | 2.008 ± 0.01 | 2.01 ± 0.018
93 | AGUCGC | 2.012 ± 0.015 | 1.98 ± 0.031
94 | AGUCGG | 1.938 ± 0.0053 | 2 ± 0.053
95 | GGUCGU | 2.034 ± 0.015 | 2.029 ± 0.0084
96 | GGUCGC | 1.952 ± 0.012 | 2 ± 0.032

Row | Variant | normalized RNA/DNA level without ligand (log10) [1] | normalized RNA/DNA level with ligand (log10) [2]
97 | GGUCGG | 2.053 ± 0.02 | 2.07 ± 0.062
98 | GGUCGA | 2.0344 ± 0.00085 | 2.01 ± 0.026
99 | AGUUAG | 1.908 ± 0.017 | 2 ± 0.038
100 | AGUUAC | 2.007 ± 0.0061 | 1.992 ± 0.013
101 | AGUUAA | 1.9569 ± 0.00052 | 1.99 ± 0.024
102 | AGUUAU | 1.979 ± 0.0072 | 2.02 ± 0.018
103 | AGUGAC | 2.006 ± 0.0076 | 1.99 ± 0.04
104 | AGUGAA | 1.933 ± 0.0071 | 1.99 ± 0.033
105 | AGUGAG | 1.767 ± 0.0046 | 1.96 ± 0.028
106 | UGUCAU | 1.955 ± 0.0075 | 2 ± 0.034
107 | UGUCUU | 1.978 ± 0.016 | 2.03 ± 0.022
108 | UGUCUA | 1.991 ± 0.0035 | 2.02 ± 0.043
109 | UGUCUC | 2.06 ± 0.022 | 2.052 ± 0.02
110 | UGUGAC | 1.949 ± 0.007 | 1.99 ± 0.016
111 | UGUGAU | 1.903 ± 0.016 | 2 ± 0.027
112 | CGUGUU | 2.001 ± 0.016 | 2.03 ± 0.057
113 | CGUGUA | 1.981 ± 0.009 | 2 ± 0.028
114 | CGUGUC | 2.0808 ± 0.0006 | 2.07 ± 0.043
115 | CGUGUG | 1.972 ± 0.015 | 1.99 ± 0.032
116 | AGUUGG | 1.87 ± 0.022 | 1.994 ± 0.015
